Measured values taken from the nanobody polyreactivity screen of Harvey et al. (2022).

Test: yeast display, Sf9 membrane polyspecificity reagent, FACS + sequencing; frameworks hold sequencing errors
In short: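 Galactose induction of a Saccharomyces cerevisiae BJ5465 synthetic nanobody display library ran 36–48 hours. The cells were then stained for 1 hour at 4 °C with 10% biotinylated, detergent-solubilized Sf9 membrane reagent, pulled down on streptavidin microbeads and FACS-sorted into low and high (top ~1%) gates on expression and reagent-binding fluorescence. Labels for polyreactivity follow the gate of origin.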

| Sequence | polyreactivity (PSR sort gate) |
| --- | --- |
| QVQLVESGGGLVQAGGSLRLSCAASGNIFTKYAMGWYRQAPGKERELVAAITWSGGSTYYADSVKGRFTISRDNAKNTVDLQMNILKPEDTAVYYCATAHVFRRDKPYDYWGQGTQVTVSS | high polyreactivity |
| QVQLVESGGGLVQAGGSLRLSCAASGNIFVAYAMGWYRQAPGKERELVAAITSGGRTYADSVKGRFTISSDNAKNTVYLQMNSLKPEDTAVYYCNADPYYVYLGYYDRYYSGYGYWGLGTQVTVSS | low polyreactivity |
| QVQLVESGGGLVQAGGSLRLSCAASGNIFVAYAMGWYRQAPGKERELVAVISNGGRTYYADSVKGRFTISRDKAKNNVYLQMNSLKPADTAVSYCATVAHASYGWHNYWGQGTQVTVSS | high polyreactivity |
| QVQLVESGGGLVQAGGSLRLSCAASGNIFVDNAMGWYRQAPGKERELVAAITFSGDDTYYADSVKGRFTISRDNAKNTVYLQMNSLKPEDTAVYYCNAVPTLYWWYDYWGQGTQVTVSS | low polyreactivity |
| QVQLVESGGGLVQAGGSLRLSCAASGNIFVINAMGWYRQAPGKERELVAAISWSTANTYYADSVKGRFTISRDNAKNTVYLQLNSLKPEDTAVYYCAAVFRYYTYSGAVRYYYWGQGTQVTVSS | high polyreactivity |
| QVQLVESGGGLVQAGGSLRLSCAASGNIFVRYAMGWYRQAPGKEREFVAAISSSGGSTRYADSVKGRFTISRDNAKNTVYLQMNSLKPEDTAVYYCAATRVARHGSPMYYWGQGTQVTVSS | high polyreactivity |
| QVQLVESGGGLVQAGGSLRLSCAASGNIFVSNVMGWYRQAPGKERELVAAISSGGRTYYADSVKGRFTISRDNAKNTVYLQMNSLKPEDTAVYYCAASYKSKYLGGGEYWGQGTQVTVSS | high polyreactivity |
| QVQLVESGGGLVQAGGSLRLSCAASGNIFVYNAMGWYRQAPGKEREFVAAIDSGGSTYYADSVKGRFTISRDNAKNTVYLQMNSLKPEDTAVYYCARAVVQSRGPPRYKTPYDYWGQGTQVTVSS | low polyreactivity |
| QVQLVESGGGLVQAGGSLRLSCAASGNIFWWNAMGWYRQAPGKERELVAAITSDSTTYYADSVKGRFTISRDNAKNTVYFQMNCLKPEDTAVYYCAAYSYGGQGVDYGYWGQGTQVSVSS | low polyreactivity |
| QVQLVESGGGLVQAGGSLRLSCAASGNIFYGYAMGWYRQAPGKERELVAAISRAGRTYYADSVKGRFTISRDNAKNTVYLQMNSLKPEDTAVYYCAADFYYASYVRYNYWGQGTQVTVSS | low polyreactivity |
| QVQLVESGGGLVQAGGSLRLSCAASGNIFYYYAMGWYRQAPGKERELVADITSGGDTDYADSVKGRFTISRDNAKNTVYLQMNSLKPEDTAVYYCNAQYYFHVTYDYWGQGTQVTVSS | low polyreactivity |
| QVQLVESGGGLVQAGGSLRLSCAASGNIIQYYAMGWYRQAPGKERELVADIDSSGASKYYADSVKGRFTISRDNAKNTVYLQMNSLKPEVTAVYYCAAEFHWWYAGYDYGYWGQGTQVTVSS | low polyreactivity |
| QVQLVESGGGLVQAGGSLRLSCAASGNIIYQNAKGLYRQAPGKERELVAAITGRGSSTYYADSVKGRFTISRDNAKNTVYLQMNSMKPEDTAVYYCAADTTPYDGYYGHGYWGQGTQVTVSS | low polyreactivity |
| QVQLVESGGGLVQAGGSLRLSCAASGNILFNNSMGWYRQAPGKERELVAAISRSAGSTYYADSVKGSFTISRDNEKNTVYLQMNRLKPEDTAVYYCAAQYFRRSGYWGQGTQVTVSS | high polyreactivity |
| QVQLVESGGGLVQAGGSLRLSCAASGNILLFNAMGWYRQAPGKERELVATINQSGGRTYYADSVKGRFTISRDNAKNTVYLQMNSLKPEDTAVYYCAATRRYPPYFHHYDYWGQGTQVTVSS | low polyreactivity |
| QVQLVESGGGLVQAGGSLRLSCAASGNILSVNAMGWYRQAPGKERELVASIRSSTASTYYADSVKGRFTISRDNAKNTVYLQMNSLKPEDTAVYYCAARARYNRYDYWGQGTQVTVSS | high polyreactivity |
| QVQLVESGGGLVQAGGSLRLSCAASGNIYAYYAMGWYRQAPGKEWELVAAITDSGGNTFYADSVKGRFTISRDNAKNTVYLQMNSLKPVDTAVYYCAADPDGWGFVYPRYDYWGQGTQVTVSS | low polyreactivity |
